Target: FN-EIIIB
Experiment: BLI

Sequence of FN-EIIIB (chain, as listed by the source): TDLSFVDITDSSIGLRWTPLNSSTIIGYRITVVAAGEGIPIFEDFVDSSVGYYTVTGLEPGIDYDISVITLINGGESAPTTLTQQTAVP

Row | Kd [nM] | Binder
1 | 0.0626 | LMJ2.4C (VHH, sortase-tagged with biotin in the Western blots ; Purified by a his-tag for BLI and sortase-tagged with biotin in the Western blots. The tag letters are not stated for the free nanobody, so they are left out.) VHH: QVQLVEAGGGLVQAGGSLRLSCAASGSTFSHSAGGWYRQAPEKQRELVAGIRSDGNINYADSVKDRFTISRDNASNTMYLQMNNLKPEDTAVYVCNIRGSYGNTYYSRWGQGIQVTVSS
2 | 0.166 | LMJ2.5G (VHH, sortase-tagged with biotin in the Western blots ; Western blots used the nanobody sortase-tagged with biotin at a terminus. The BLI material was his-tag purified. Tag letters are not stated for the stand-alone nanobody and are left out.) VHH: QVQLVETEGGLVQAGGSLRLSCAASGSTFSHSAGGWYRQAPEKQRELVAGIRSDGNINYADSVKDRFTISRDNASNTMYLQMNNLKPEDTAVYVCNIRGSYGNTYYSRWGQGTQVTVSS
3 | 0.0254 | LMJ2.5I (VHH, sortase-tagged with biotin in the Western blots ; Purified by a his-tag for BLI and sortase-tagged with biotin in the Western blots. The tag letters are not stated for the free nanobody, so they are left out.) VHH: RVQLVETGGGLVQAGGSLRLSCAVSGSTFSHSAGGWYRQAPEKQRELVAGIRSDGNINYADSVKDRFTISRDNASNTMYLQMNNLKPEDTAVYVCNIRGSYGNTYYSRWGQGAQVTVSS
4 | 0.0622 | LMJ2.5J (VHH, sortase-tagged with biotin in the Western blots ; Western blots used the nanobody sortase-tagged with biotin at a terminus. The BLI material was his-tag purified. Tag letters are not stated for the stand-alone nanobody and are left out.) VHH: QVQLVETRGGLVQAGGSLRLSCAVSGSTFSHSAGGWYRQAPEKQRELVAGIGSAGNINYADSVKDRFTISRDNASNTMYLQMNNLKPEDTAVYVCNIRGSYGNTYYSRWGQGTQVTVSS
5 | 1.82 | NJB2 (parental nanobody) (VHH, Purified by a his-tag. Its letters and position are not stated for the free nanobody, so it is left out.) VHH: QVQLVETGGGLVQAGGSLRLSCAASGSTFSHNAGGWYRQAPEKQRELVAGISSDGNINYADSVKDRFTISRDNASNTMYLQMNNLKPEDTAVYVCNIRGSYGNTYYSRWGQGTQVTVSS
6 | 0.227 | LMJ2.5H (VHH, sortase-tagged with biotin in the Western blots ; Western blots used the nanobody sortase-tagged with biotin at a terminus. The BLI material was his-tag purified. Tag letters are not stated for the stand-alone nanobody and are left out.) VHH: QVQLVETGGGLVQAGGSLRLSCAVSGSTFSHSAGGWYRQAPEKQRELVAGIRSDGNINYADSVKDRFTISRDNASNTMYLQMNNLKPEDTAVYVCNIRGSYGNTYYSRWGQGTQVTVSS
7 | 0.973 | LMJ1.2G (VHH, sortase-tagged with biotin in the Western blots ; Purified by a his-tag for BLI and sortase-tagged with biotin in the Western blots. The tag letters are not stated for the free nanobody, so they are left out.) VHH: QVQLVETGGGLVQAGGSLRLSCAASGSTFSHSAGGWYRQAPEKQRELVAGIGSDGNINYADSVKDRFTISRDNASNTMYLQMNNLKPEDTAVYVCNIRGSYGNTYYSRWGQGTQVTVSS
8 | 0.402 | LMJ1.3J (VHH, sortase-tagged with biotin in the Western blots ; Purified by a his-tag for BLI and sortase-tagged with biotin in the Western blots. The tag letters are not stated for the free nanobody, so they are left out.) VHH: QVQLVGTGGGLVQAGGSLRLSCAASGSTFSHSAGGWYRQAPEKQRELVAGISSAGNINYADSVKDRFTISRDNASNTMYLQMNNLKPEDTAVYVCNIRGSYGNTYYSRWGQGTQVTVSS
9 | 0.0785 | LMJ2.5C (VHH, sortase-tagged with biotin in the Western blots ; Purified by a his-tag for BLI and sortase-tagged with biotin in the Western blots. The tag letters are not stated for the free nanobody, so they are left out.) VHH: QVQLVETGGGLVQAGGSLRLSCAASGSTFSHSAGGWYRQAPEKQRELVAGVRSDGNINYADSVKDRFTISRDNASNTMYLQMNNLKPEDTAVYVCNIRGSYGNTYYSRWGQGIQVTVSS
10 | 0.344 | LMJ2.6A (VHH, sortase-tagged with biotin in the Western blots ; Purified by a his-tag for BLI and sortase-tagged with biotin in the Western blots. The tag letters are not stated for the free nanobody, so they are left out.) VHH: RVQLVETGGGLVQAGGSLRLSCAVSGRTFSHSAGGWYRQAPEKQRELVAGIRSDGNINYADSVKDRFTISRDNASNTMYLQMNNLKPGDTAVYVCNIRGSYGNTYYSRWGQGTQVTVSS
11 | 0.3 | LMJ1.2C (VHH, sortase-tagged with biotin in the Western blots ; Purified by a his-tag for BLI and sortase-tagged with biotin in the Western blots. The tag letters are not stated for the free nanobody, so they are left out.) VHH: QVQLVETGGGLVQAGGSLRLSCAASGSTFSHSAGGWYRQAPEKQRELVAGIRSDGNINYADSVKDRFTISRDNASNTMYLQMNNLKPEDTAVYVCNIRGSYGNTYYSRWGQGTQVTVSS
